Reference: the DeepSol protein solubility set

Assay: soluble on expression in E. coli; label from the status in PepcDB or PDB records
With “MGSDKIHHHHHHVMKVLLYSEGKKLFSKSGVGIALKHQMSALDKVGVKYTTNEEDSFDIVHINTIGPGAERVIKKSKKLGIPIIYHTHTTYEDFRNSFTLSNAIAPWLRKRLIKLYSSADFLISPTEYAKKLIMNYGITLPIKAVSNGVDNKKFTRSKSLAESFLSENHIRKPLVVSVGLPFERKGVIDFCQIADTRKDLTFYWFGAKISSLLPAKIRRLLKNPPDNVKFPGFIPQEMIIGPYSACDVFLFPSYEETEGIVVLEALATEAPIVLRDIPVYSEWMKHEENCLKGKDNQEFIKHIDRLLESNNLRKKLSSCGKETALERDLSIIGQKLKNIYLEVLDKKQ” the “soluble on expression in E. coli” value was “not soluble”. With “MGSDKIHHHHHHVNELSADVVILGGGLVGMTLAIGLAKAGISSHVVDNSDPAAQTAEGFDGRASAISTASWNLYANLGMADELAPKGCPIEAIAVTDAMKPGRIDFKPGEGDGSLGRMYANRDLRIAMYAAAAREEAITFHTNANVIHRERGEHGVSVTLADGRILKGRLLVGAEGRRSPTRDEAGFTPARWDYGHRAIIAGLTHEKPHGNVAWEVFYPAGPFALLPLLDDEDGSHRSALVWTVAEKDASAVLAMPEPMFLDEVSKRMHEIFGEIRLASPRSSYPLNFHHTARIVEQRLALVGDAAHGMHPIAGQGLNVGLRDVAALVEVLADGVRLGLDVGDAQLLARYERWRAADTFMVATATDVLTRLFGLPGRVPSAIRRLGMAGVQRMGPLKRWFMDEARGMSGDLPKLLRAA” the “soluble on expression in E. coli” value was “not soluble”. With “MGSDKIHHHHHHVQVVSISSLKGGVGKTSVTTGLASAALAAGIPTLVVDLDPHADASTALGVQPDEQLDIGRMLKSPRRARLSQNVVTSGWVARENYNGARPAVLDVAVGSAYTGIYDRPDLGRRDLRRLSAVLAGTDKYQLILVDCPPSLNGLTRMAWSASDKVALVAEPGLFSVAGTERTMRAIQLFRQEFAPNLSPAGIIANRVRSGSSEHAFRLAEMQSMFGELLLTPYIPEQANWQQIQGAAHSVHHWPGDSAKNAASLFNTLLDNLMASNDAGSAGALRERSLR” the “soluble on expression in E. coli” value was “not soluble”. In the case of “MGSDKIHHHHHHVRFATKFDLLSHIRLNAALTSARFDAEQGLWLLRLENGEQLKASFFICSAGPLSEPRYPDIPGMDTYEGRLFHSARWDHDYPLNGKRVAVIGTAASAVQIIPHIAPLAARLYVCQRSPNWIIPRLNHVYAPWEKALFRLKPIAKTNRFLLYWLHEMNRLSFNPGGFMARIGRELAEWHLRRQVIDPRLRGALRPGYPLGCKRVLLSNDYYPTLMRPNVELIDTPIDRIDPGGIVTRDGQKREVDVIICATGFNVKRMLSVEIRGLQGYRLNEAWAREPKAYQGVTVASFPNLFILLGPNTGQGHTSAILFIEAQVNYALKCIQEIARQQKRFLSVKPEAMNRYNEELQKTLSTSVWAAGCRSWYKTESGKIIGIYPGFSFQYAKQLREPRFEDYVMC”, the “soluble on expression in E. coli” value is reported as “not soluble”. With “MGSDKIHHHHHHVRNYTYRYLNTIALPMETVRLISRINEYKGKQDLYKQQAPQVLDTLRDVAVIQSTKASNAIEGIVVTESRLHTIMSKSADPADRSEAEIAGYRDVLNLIHASARDIPINANVLLQLHKELYKFVPVEGGRWKNVDNEISESFPDGTRRTRFVPVPAFETPASVQALCDSLRERRQQEDVDPLILTSLFVLDFLSIHPFNDGNGRMSRLLTLLLLYQEGFEVGRYISLEKIVESRKEDYYESLRLSSIHWHQNQQDPFPWVNYLLSTILAAYKELEDRVGLITTGNQNKAGRIRQFVESRITPFTKADVRNACPDVSEATINRLLRELRDEGLIKPSGRGRGAKWIKR” the “soluble on expression in E. coli” value was “not soluble”. In the case of “MGSDKIHHHHHHVSCDYFNRGLCQSCRLMSKPVTEQLLEKEARLTHLLGGLPVDERLAPVSGPEFGFRNKAKMVVMGAAHAPVLGIPGPDGQPVDLSHCPLYPQDMQALLLELTSFVRRAGIPPYRVDKAKGELKFILLTRSAVRGEFMLRFVLRSKDAIPRIERELPKLLADFPAIKVVSVNLQPVHMARLEGEEEIFLTQATRLDEVFNGVPLFIRPKSFFQTNPEVASRLYATAAKWVDELSPKSLWDLFCGVGGFGLHCANESLPVTGIEIEAEAIDCAKTSAAAMGLDNLSFAALDSTDFAMGQQAQEVPEVIIVNPPRRGIGEELCERLSAFGPRAIIYSSCNPETLAKDLALISGYRIARVQLFDMFPHSDHFEVLCLLLKEAACASAD”, the “soluble on expression in E. coli” value is reported as “not soluble”. In the case of “MGSDKIHHHHHHVSDSPLPDSETSAAAEFKVDNCALVLEGGGLRAIYTAGVLDAFLAAGIHFQYLVGVSAGAIYPASYLSRQMGRNLTIQQNFLADKRYMGLKHLLRTGNYVNTDFTYRRMAHELVPYDFDAFASSEAEFKVGAFNCLTGETDFFGMADFADHDTFLEVLIASSSLPFISKPTFIDGTPYLDGGIGAPIPLAQAREDGYKRQVVILTQEQDYRKSAFKAKWLAKRLYRRYPKVASALLARHQVYNQALDDLTKAQADGSALVLQPATPMGLSRLERDVSKVEAVYRRGLSEGEAFIPSLLAFIENC”, the “soluble on expression in E. coli” value is reported as “not soluble”. In the case of “MGSDKIHHHHHHVSKPHYKTTNWKQYNQALINRGSLTFWIDEDAIAKWKAKVEQPKKGRPRVFSDLAITTALMVKRIFSMPLRALQGFINSVFKLGDIPLSCPHYTCISKRAKTVNIAFKTKTRGAIKHLAIDSTGLKVYGEGEWKVKKHGTDGKRRVWRKLHIAVDTHSHEIIAAELSLSGVTDAEVMPNLLKQTHRKIRNISGDGAYDTKACHEAVRRKRALVLIPPREGAALWEQGHPRNLAVSWQQLHGSNKQWKKRYGYHRRSISETAMYRIKQLLGGTLSMRNYNAQVGETYAMIRALNKLTGLGMPETHYVA”, the “soluble on expression in E. coli” value is reported as “not soluble”. For “MGSDKIHHHHHHVSRLDQLNDWLHQALQGKPHHLTTASADASFRRYFRVHLADGATLIAMDAPPPQEDCRPFVKVAALFEQAGLNVPKVLAQDVENGFLLLTDLGAQTFLDVLNEDNADTLFRDAIDALVTWQLASRPGVLPAYDEALLRRELCLFPDWYVARHLNVELSESQRSTLENAFSTIVRYNLAQPSVYVHRDYMPRNLMISTPSPGILDFQDAVYGPISYDVASLFKDAFISWQEERVLDGTIRYWEKARKAGLPVRSDFGDFYRDFEWMGLQRHLKVLGIFARIHYRDGKPKYLADTPRFMNYVRQVCVRYGELRPLLRLLDELEKREPQFGYTF”, the “soluble on expression in E. coli” value was “not soluble”. In the case of “MGSDKIHHHHHHVTPFAQTAAQTDHYDVIVIGAGPSGSVAASLLHQQGKRVLVLEKQHFPRFSIGESLLPCCMQVIAEANMLDAVNQAGYQFKNGAAFNANGRSTYFDFTDKFTPGPGTTFQVERGDFDKLLADTAASQGVEIRYGQRVDAVDLSHNPRLTISDEQGASYELSADYLLDASGFGRVLPRLLDLERPSNLPSRTAIFTHIQDNIDSVDMGDYHFDRNKILISVHPDNRDIWYWLIPFSNGRCSLGVVGEPHLLGQDADLEATNLEATLIRLVREEPRLKQLLSRAEIIRKPAKLAGYSANVSTLASDKFALLGNAGEFLDPVFSSGVTIAMQSASIAAKCVVKQLNGESVDWQTEYAQPLMRGVDTFRTYVQAWYDGRFQDVIFYQDPNPKIKQMICSILAGYAWDESNPFVAESERRLNMVVELCR”, the “soluble on expression in E. coli” value is reported as “not soluble”. In the case of “MGSDKIHHHHHHVVLDTDLASIQESRNLVQKAKEAQLHLAHFNEQQIDKILASIVAAVEENAEGLARMACQETEYGIVEHKIAKNLFAARDVYESTKHIKTIGTISEDPDRKVIRYAAPMGVLVGITPRTNPTSTIIHNALCAIKGANAIVFSPHPFAVQCGCATASLINEAAVKAGAPDGVCSCLSMTSLQASHELMHHPDVAAIIATGGPGLVKSAYSAGKPAFGVGSGNVPVFIERSADIKQAVNDIMVSKTFDNGMICASEQAILADQPIKDEVIKELQNQGAYFLSPEEVQKVGRVVIHANGSMNNALVGQSPAVIAQRAGISIPADTALLIAPMEGYGKDYPLSHEKLTTVLGFYVVQDWKEACHLSIELLKLGGIGHSCAIHSQNEQVIREFLAKPVFRIIVNTPSALGGIGQTTGIMPSLTLGCGTWGGSSISENLGPQHLINIKHLTYGLKKVAFHKVPATQGNVSPLLPPTKATSWDIKSDDIDDVVKQVLQQLKIG”, the “soluble on expression in E. coli” value is reported as “not soluble”. For “MGSDKIHHHHHHVVNAIEVSDISKQFVLRHTRSIKEAVVWLAKGRKGDLSEKFHALKNVTLEVKTGETVALLGLNGSGKSTLLKHISGVMLPDSGTVRTRGRVAGLIEVGAGFHPDLSGRDNVYLNGAILGMTEQQVNDRFDDIVEFSETGQFIDTEVKFYSSGMYLRLAFSVAVHTDPEVFLIDEILAVGDEPFQRKCIDKIQELARNGKTLVVVSHDLDLVSRICARGILLEHGNVKFDGSIHDAVALLRA”, the “soluble on expression in E. coli” value was “not soluble”. In the case of “MGSIWELDFYSRPILDENQKKVWEVVICESPLDIRTKTDSLFRYAQYCPSTEVNSAWLRTAIQEAISKAGKAPIKIRFFRRQMNNMIVKACEDAGIPALPSRRTLALNQWLKQRMEEVYPQEPGYQGVTTPSVRLDSPLPQRLPDALEGQQWVFVSLSAADLAEMPDWEIGFSEAFPLDFVQVSPETRIPGVLIFSPRALPIAGWMSGLELAFLRVDTSQGMRLVLETGATESWILANIKNPTTVQEARGFEEAKQKANGVHFIGVQSNPEAESFAGFWLLQELGVLEHHHHHH”, the “soluble on expression in E. coli” value is reported as “not soluble”. In the case of “MGSLKIYPSKLSGDVKIPPSKSMAHRAVICSSLSNGKSRISNIDFSDDIIATIRAMTSLGAIIEKKEDILEISGIFSKEGILNRENQLNQPKLTIDCNESGSTLRFLVPISLAFDGVKRFIGRGNLGKRPLDTYYEIFDRQNIKYSYKENQLDLIISGKLKPDEFRVKGNISSQFITGLLFILPTLESDSKIIITTELESKGYLDLTLSTIKDFGVEIINNNYKEFIIKGNQTYKARDYKVEGDYSQGAFYLSADAIGEDISILDLKEDSLQGDSEVVEILSRMGMEILREGNKIKGITNGLNGTLIDASQCPDIIPVLSVVASLSIGKTTIINAGRLRIKECDRLHAINVELSKLGANIEEKEDSLIIEGVSKLNGGVEVWSHKDHRIAMTLAIASCRCDKPIILKDFECVSKSYPHFFKDFKMLGGRIDEWNMGK”, the “soluble on expression in E. coli” value is reported as “not soluble”. With “MGSLVREWVGFQQFPAATQEKLIEFFGKLKQKYLIVKMIQGAIRNDIKTSGKPL” the “soluble on expression in E. coli” value was “not soluble”. For “MGSMRICIFMARGLEGCGVTKFSLEQRDWFIKNGHEVTLVYAKDKSFTRTSSHDHKSFSIPVILAKEYDKALKLVNDCDILIINSVPATSVQEATINNYKKLLDNIKPSIRVVVYQHDHSVLSLRRNLGLEETVRRADVIFSHSDNGDFNKVLMKEWYPETVSLFDDIEEAPTVYNFQPPMDIVKVRSTYWKDVSEINMNINRWIGRTTTWKGFYQMFDFHEKFLKPAGKSTVMEGLERSPAFIAIKEKGIPYEYYGNREIDKMNLAPNQPAQILDCYINSEMLERMSKSGFGYQLSKLNQKYLQRSLEYTHLELGACGTIPVFWKSTGENLKFRVDNTPLTSHDSGIIWFDENDMESTFERIKELSSDRALYDREREKAYEFLYQHQDSSFCFKEQFDIITK”, the “soluble on expression in E. coli” value was “soluble”. In the case of “MGSRCVAAANCPFGKLPGQSCVRKSDPSLAFNIPSNQDNCPMGQVCITAGESQVGHCCPVICPLNTTTDTRYSCDPDAAPALKCPSDSHYCYFLSGNFNKIQNFICNANSDGSFSQAACCRRPCNAMAPNALYVDYHCMPRGQLNSACTSNAQCGGGEGMECMKGQCQCQQNFHPAVDVLTNPLKNPSQSCSRDCESENLSKDTSCMKAVPLNSLCFIQKQCPQNSGCYRGRCMCRCGFAAKNGKCVEIPAPPTTTSAPAPAIIPGVPINPGNDLFKLFGQFLGAGNGGGGLNFG”, the “soluble on expression in E. coli” value is reported as “not soluble”. For “MGSSHHHHHHDYDIPTTENLYFQGHMKVKILVDSTADVPFSWMEKYDIDSIPLYVVWEDGRSEPDEREPEEIMNFYKRIREAGSVPKTSQPSVEDFKKRYLKYKEEDYDVVLVLTLSSKLSGTYNSAVLASKEVDIPVYVVDTLLASGAIPLPARVAREMLENGATIEEVLKKLDERMKNKDFKAIFYVSNFDYLVKGGRVSKFQGFVGNLLKIRVCLHIENGELIPYRKVRGDKKAIEALIEKLREDTPEGSKLRVIGVHADNEAGVVELLNTLRKSYEVVDEIISPMGKVITTHVGPGTVGFGIEVLERKR”, the “soluble on expression in E. coli” value was “soluble”.
